Numbered stars: 1 amine (or outer) side, 2 acyl side, 3 side chain; on linkers, the order of the positions; unused ones are H or OH. Bridge positions count the residues as written; N and C are the ends. Square brackets hold non-standard residues; d marks the D form. Ends that are not written are not given here. CO = O=C([*:1])[*:2]; Nlys = NCCCCNCC(=O)O
Molecular target: MyD88, endogenous, in human cell lines (HeLa, U937, THP-1) (human, UniProt Q99836 1-296)
Assay: cell-based or functional assay

Chain of MyD88, endogenous, in human cell lines (HeLa, U937, THP-1) (Q99836 whole entry): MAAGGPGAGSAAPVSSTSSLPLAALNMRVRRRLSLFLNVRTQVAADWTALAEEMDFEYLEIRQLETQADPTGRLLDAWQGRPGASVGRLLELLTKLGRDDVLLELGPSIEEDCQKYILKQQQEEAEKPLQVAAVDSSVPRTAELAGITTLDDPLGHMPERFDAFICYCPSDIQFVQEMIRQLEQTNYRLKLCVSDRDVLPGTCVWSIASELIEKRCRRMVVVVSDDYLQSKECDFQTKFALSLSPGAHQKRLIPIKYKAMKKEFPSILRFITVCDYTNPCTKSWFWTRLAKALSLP

B1: MyD88 inhibitor linear peptide RDVLPGT (peptide)
peptide: RDVLPGT
  Percent p65 nuclear translocation in HeLa cells, IL-1β: 20%

B2: backbone cyclic peptide 4×4MyDI (Formula IV, m=4, n=4, Z=Trp) (peptide)
peptide: W[Nlys]RDVL[Nlys]GT
modifications: bridge 2-7 via CO; also: backbone cyclization: two amine-terminated 4-methylene arms on Gly2 and Gly7 joined by a urea bond
  Percent p65 nuclear translocation in HeLa cells, IL-1β: 27%

B3: scrambled version of the linear MyD88 inhibitor peptide (PTDLVRG) (peptide)
peptide: PTDLVRG
  Percent p65 nuclear translocation in HeLa cells, IL-1β: 91%

Reference: patent US20190185516A1 (YISSUM RESEARCH DEVELOPMENT COMPANY OF THE HEBREW …, published 2019)
